From US20180237496A1 (DENALI THERAPEUTICS, published 2018) come the findings set out here.

In test [1] the target is T1, His-tagged permuted human TfR apical domain (TfR-AD) (human).
T1 construct: C-terminal His6; used for co-crystals (Expi293 or CHO); also called permuted TfR apical domain
T1 chain: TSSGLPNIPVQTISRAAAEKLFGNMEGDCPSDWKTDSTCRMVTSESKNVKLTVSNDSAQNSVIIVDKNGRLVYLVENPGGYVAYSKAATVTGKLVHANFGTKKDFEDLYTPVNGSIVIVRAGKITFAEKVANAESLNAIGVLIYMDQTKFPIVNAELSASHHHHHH
Briefly: size-exclusion chromatography of the mixed proteins.

The target of test [2] is T2, human transferrin receptor (TfR) ectodomain (ECD) (human, biotinylated where captured on streptavidin ; Biotinylated (NHS-biotin on amines, or BirA on the Avi-tag) where captured on streptavidin. It forms a homodimer, and the unique chain is given once.).
T2 construct: made in HEK293; also called human TfR; huTfR; not shown: The C-terminal cleavable His- and Avi-tags
Briefly: phage ELISA, clone on phage, target coated on plate. The procedure: (§1) FIGS. 1A-1D show phage ELISA results for four CH2A2 clones.
(§2) ELISA plates were coated with target, typically at […] overnight, then blocked with 1% BSA before addition of phage or periplasmic extracts. […] The plates were washed again, and then developed with TMB reagent and quenched with 2N sulfuric acid. […] Absorbance signal for tested clones was compared to negative control (phage or paraplasmic extract lacking Fc).
On the technique in general: ELISA stands for enzyme-linked immunosorbent assay.
Target sequence in this assay (chain, as listed by the source limits assumed, form in doubt): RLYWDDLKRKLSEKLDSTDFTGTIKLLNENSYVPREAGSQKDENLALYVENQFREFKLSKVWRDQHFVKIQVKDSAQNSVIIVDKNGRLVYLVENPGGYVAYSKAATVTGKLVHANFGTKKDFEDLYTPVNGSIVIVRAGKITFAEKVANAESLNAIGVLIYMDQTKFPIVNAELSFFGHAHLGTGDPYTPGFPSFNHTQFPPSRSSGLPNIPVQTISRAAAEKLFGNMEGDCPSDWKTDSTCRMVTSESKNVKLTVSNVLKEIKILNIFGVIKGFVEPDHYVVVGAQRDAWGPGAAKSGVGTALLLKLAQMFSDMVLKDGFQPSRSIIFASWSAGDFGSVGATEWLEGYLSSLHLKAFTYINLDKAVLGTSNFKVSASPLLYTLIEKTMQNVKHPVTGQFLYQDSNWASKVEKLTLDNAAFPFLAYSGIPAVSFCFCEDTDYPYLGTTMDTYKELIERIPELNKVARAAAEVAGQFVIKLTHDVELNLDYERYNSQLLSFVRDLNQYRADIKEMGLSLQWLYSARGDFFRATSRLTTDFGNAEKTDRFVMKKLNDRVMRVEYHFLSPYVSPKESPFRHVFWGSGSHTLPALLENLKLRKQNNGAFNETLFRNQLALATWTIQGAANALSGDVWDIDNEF

The target of test [3] is T3, cynomolgus (cyno) transferrin receptor (TfR) ectodomain (ECD) (cynomolgus (cyno), biotinylated where captured on streptavidin ; biotinylated (sulfo-NHS-LC-biotin on amines or BirA on the Avi-tag) where captured on streptavidin).
T3 construct: made in HEK293; also called cyno TfR; cynoTfR; not shown: C-terminal cleavable His- and Avi-tags with their cleavage site
T3 chain: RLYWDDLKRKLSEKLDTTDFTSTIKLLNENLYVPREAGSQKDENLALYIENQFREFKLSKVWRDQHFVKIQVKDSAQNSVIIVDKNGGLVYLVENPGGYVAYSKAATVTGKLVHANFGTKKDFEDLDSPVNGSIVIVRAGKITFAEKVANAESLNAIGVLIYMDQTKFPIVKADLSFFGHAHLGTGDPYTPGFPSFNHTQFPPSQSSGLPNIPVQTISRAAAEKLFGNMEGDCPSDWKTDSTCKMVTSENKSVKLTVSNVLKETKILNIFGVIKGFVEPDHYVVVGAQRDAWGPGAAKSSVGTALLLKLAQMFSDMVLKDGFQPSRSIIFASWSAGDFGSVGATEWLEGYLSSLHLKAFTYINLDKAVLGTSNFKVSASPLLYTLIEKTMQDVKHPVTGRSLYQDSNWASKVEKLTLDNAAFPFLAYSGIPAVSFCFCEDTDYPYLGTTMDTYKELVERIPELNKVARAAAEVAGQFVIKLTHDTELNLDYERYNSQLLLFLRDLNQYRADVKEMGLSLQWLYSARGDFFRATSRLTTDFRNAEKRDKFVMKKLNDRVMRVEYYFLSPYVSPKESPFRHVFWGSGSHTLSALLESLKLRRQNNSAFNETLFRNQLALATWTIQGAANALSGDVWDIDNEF
The description is as above. The procedure: as §1, §2

Test [4] has as its target T2, human transferrin receptor (TfR) …. The experiment in a line: ELISA, clone as Fc-Fab fusion, human TfR coated.

B1: CH3C.18 Fc (expressed engineered human Fc) (designed binder)
chain: DKTHTCPPCPAPEAAGGPSVFLFPPKPKDTLYITREPEVTCVVVDVSHEDPEVKFNWYVDGVEVHNAKTKPREEQYNSTYRVVSVLTVLHQDWLNGKEYKCKVSNKALGAPIEKTISKAKGQPREPQVYTLPPSRDELTKNQVSLTCLVKGFYPSDIAVEWESLGHVWAVYKTTPPVLDSDGSFFLYSKLTVPKSTWQQGWVFSCSVMHEALHNHYTQKSLSLSPGK
notes: also called CH3C.18 Fc polypeptide
As to B1, the binding result in test [1] was “binds”.

B2: CH3C.35 Fc (expressed engineered human Fc) (designed binder)
chain: DKTHTCPPCPAPEAAGGPSVFLFPPKPKDTLYITREPEVTCVVVDVSHEDPEVKFNWYVDGVEVHNAKTKPREEQYNSTYRVVSVLTVLHQDWLNGKEYKCKVSNKALGAPIEKTISKAKGQPREPQVYTLPPSRDELTKNQVSLTCLVKGFYPSDIAVEWESYGTEWSSYKTTPPVLDSDGSFFLYSKLTVTKSEWQQGFVFSCSVMHEALHNHYTQKSLSLSPGK
As to B2, the binding result in test [1] is “binds”.

B3: Clone CH2A2.4 (designed binder)
chain: PCPAPELLGGPSVFLFPPKPKDTLMISRTPEVTCVVVDVSHEDPEVSFEWYVDGVPVRWEWQWPREEQYNSTYRVVSVLTVLHQDWLNGKEYKCKVSNKALPAPIEKTISKAKGQPREPQVYTLPPSRDELTKNQVSLTCLVKGFYPSDIAVEWESNGQPENNYKTTPPVLDSDGSFFLYSKLTVDKSRWQQGNVFSCSVMHEALHNHYTQKSLSLSPGK
notes: modified human IgG1 Fc, phage display
For B3, the “EC50 (read off the curve)” value in test [2] and in test [3] was ~0.02 OD268 (phage solution) each time.

B4: Clone CH2A2.5 (designed binder)
chain: PCPAPELLGGPSVFLFPPKPKDTLMISRTPEVTCVVVDVSHEDPEVAFTWYVDGVPVRWEWQNPREEQYNSTYRVVSVLTVLHQDWLNGKEYKCKVSNKALPAPIEKTISKAKGQPREPQVYTLPPSRDELTKNQVSLTCLVKGFYPSDIAVEWESNGQPENNYKTTPPVLDSDGSFFLYSKLTVDKSRWQQGNVFSCSVMHEALHNHYTQKSLSLSPGK
notes: as for B3
Turning to B4, the “EC50 (read off the curve)” value in test [2] was ~0.008 OD268 (phage solution); in test [3], ~0.01 OD268 (phage solution).

B5: Clone CH2A2.16 (designed binder)
chain: PCPAPELLGGPSVFLFPPKPKDTLMISRTPEVTCVVVDVSHEDPEVWFEWYVDGVFVGVAYDVPREEQYNSTYRVVSVLTVLHQDWLNGKEYKCKVSNKALPAPIEKTISKAKGQPREPQVYTLPPSRDELTKNQVSLTCLVKGFYPSDIAVEWESNGQPENNYKTTPPVLDSDGSFFLYSKLTVDKSRWQQGNVFSCSVMHEALHNHYTQKSLSLSPGK
notes: as for B3
As for B5, in test [2], the “EC50 (read off the curve)” value was ~0.04 OD268 (phage solution).

B6: Clone CH2A2.1 (designed binder)
chain: PCPAPELLGGPSVFLFPPKPKDTLMISRTPEVTCVVVDVSHEDPEVEFIWYVDGVDVRYEWQLPREEQYNSTYRVVSVLTVLHQDWLNGKEYKCKVSNKALPAPIEKTISKAKGQPREPQVYTLPPSRDELTKNQVSLTCLVKGFYPSDIAVEWESNGQPENNYKTTPPVLDSDGSFFLYSKLTVDKSRWQQGNVFSCSVMHEALHNHYTQKSLSLSPGK
notes: as for B3
On to B6, for which the “EC50 (read off the curve)” value in test [2] is ~0.03 OD268 (phage solution); in test [3] it was ~0.04 OD268 (phage solution).

B7: Clone CH2C.6 (designed binder)
chain: PCPAPELLGGPSVFLFPPKPKDTLMISRTPEVTCVVVDPKMPPWEVKFNWYVDGVEVHNAKTKPREEEYYTYYRVVSVLTVLHQDWLNGKEYKCKVSNKALPAPIEKTISKAKGQPREPQVYTLPPSRDELTKNQVSLTCLVKGFYPSDIAVEWESNGQPENNYKTTPPVLDSDGSFFLYSKLTVDKSRWQQGNVFSCSVMHEALHNHYTQKSLSLSPGK
notes: as for B3
As for B7, the “EC50 (read off the curve)” value in test [4] was about 2 nM.
